According to patent publication US20140199242A1:

Molecular target: MUC4 protein (endogenous human MUC4 of pancreatic cancer cells and tumor tissue) (human) (UniProt Q99102)
Assay: flow cytometry, cell-surface staining of paraformaldehyde-fixed unpermeabilized cells (cell line not given), 1 µg antibody/10^6 cells, FITC anti-mouse secondary

| MFI (mean fluorescence intensity) | Substance |
| --- | --- |
| 14.2 | anti-KLH antibody K2G6 |
| 23.1 | anti-MUC4 TR MAb 8G7 (antibody) |
